This is an account of results in US20140057807A1.

B1: ySMB-1 (designed binder)
chain: VSSVPTKLEVVAATPTSLLISWDASSSSVSYYRITYGETGGNSPVQEFTVPGSSSTATISGLSPGVDYTITVYAYYSYYDLYYSYSPSSINYRT
B2: SEQ ID NO 87 (designed binder)
chain: B1 chain with Y31H, R33H, Y75F, Y78D, Y79D, Y83F, S84A, Y85F
B3: SEQ ID NO 88 (designed binder)
chain: B1 chain with Y31H, R33G, Y76H, Y79D, L81I, S84A, Y85L
B4: SEQ ID NO 93 (designed binder)
chain: B1 chain with R33E, Y73I, Y75F, Y78H, Y79D, L81I, Y83I, Y85D
B5: SEQ ID NO 96 (designed binder)
chain: B1 chain with Y31H, R33D, Y73H, Y79D, L81I, Y83V, S84A, Y85I
B6: SEQ ID NO 90 (designed binder)
chain: B1 chain with Y31H, R33E, Y78H, Y79E, L81I, Y82F, S84A, Y85V
B7: SEQ ID NO 89 (designed binder)
chain: B1 chain with Y31H, R33A, Y76H, Y79D, L81I, Y82F, Y83L, S84A, Y85D
B8: SEQ ID NO 92 (designed binder)
chain: B1 chain with Y31H, R33E, Y73T, Y76D, L81I, Y83I, S84A
B9: SEQ ID NO 91 (designed binder)
chain: B1 chain with Y31H, R33E, Y73A, Y76H, Y79H, L81I, Y82F, S84A, Y85V
B10: SEQ ID NO 95 (designed binder)
chain: B1 chain with Y31H, R33A, Y73F, Y79D, L81I, S84A
B11: SEQ ID NO 94 (designed binder)
chain: B1 chain with Y31H, R33A, Y79D, Y83V, Y85D
B12: hS1MB-7 (designed binder)
chain: B1 chain with R33E, Y73I, Y75F, Y78H, Y79D, L81I, Y83I, Y85D
B13: hS1MB-3 (designed binder)
chain: B1 chain with Y31H, R33A, Y76H, Y79D, L81I, Y82F, Y83L, S84A, Y85D
B14: hS1MB-19 (designed binder)
chain: B1 chain with Y31H, R33G, Y79D, L81I, Y82F, Y83V, S84A, Y85V
B15: hS1MB-13 (designed binder)
chain: B1 chain with R33A, Y76H, Y79D, L81I, Y83F, S84A, Y85F
B16: hS1MB-14 (designed binder)
chain: B1 chain with Y31H, R33H, Y79N, L81I, Y82F, Y83F, S84A, Y85D
B17: hS1MB-15 (designed binder)
chain: B1 chain with R33D, Y79D, L81I, Y83F, S84A, Y85D
B18: hS1MB-12 (designed binder)
chain: B1 chain with R33E, Y73F, Y76H, Y78D, Y79D, S84A, Y85F
B19: hS1MB-21 (designed binder)
chain: B1 chain with Y31H, R33G, Y79H, L81I, Y82F, S84A, Y85L
B20: hS1MB-22 (designed binder)
chain: B1 chain with Y31H, R33A, Y75F, L81I, Y82F, Y85D
B21: hS1MB-18 (designed binder)
chain: B1 chain with R33E, Y73F, Y76D, Y78V, Y79E, L81I, Y83V
B22: hS1MB-16 (designed binder)
chain: B1 chain with Y31H, R33D, Y76N, Y78H, Y79D, L81I, Y82F, Y83I, S84A
B23: hS1MB-17 (designed binder)
chain: B1 chain with R33E, Y73S, Y76N, Y79D, L81I, S84A, Y85V
B24: hS1MB-20 (designed binder)
chain: B1 chain with Y31H, R33S, Y76D, Y78I, Y79E, L81I, Y83I, S84A, Y85D
B25: hS1MB-11 (designed binder)
chain: B1 chain with Y31N, R33A, Y79D, L81I, Y82F, Y83V, S84A, Y85D
B26: hS1MB-23 (designed binder)
chain: B1 chain with Y31H, R33E, Y78H, Y79D, L81I, Y82F, S84A, Y85F

Numbering of substitutions follows the chain as printed.

The first assay concerns the target human small ubiquitin-like modifier 1 (human) (UniProt P63165). Put plainly: SPR.
In turn, B1 had a Kd of 54000 nM and a fold discrimination in affinity (ySUMO over hSUMOs) of over 600 fold.

For the next assay the target is unchanged. Put plainly: SPR (monobody on the chip via His-tag, target flowed); estimated Kd [Continued].
For the molecule B2, the Kd was 652 nM. The same measure, in the same setting: then B3, with 290 nM; and B4, with 2500 nM; and B5, with 2200 nM. As for B6, the Kd was 145 nM.

Turning to B7, the Kd was 519 nM.

As to B8, the Kd was 2800 nM.

In the case of B9, the Kd is 284 nM.

On to B10, for which the Kd is 738 nM. Still for that read-out and setting: with B11 the figure was 3600 nM.

For the next assay the target is unchanged. Put plainly: SPR (Biacore 2000), monobody immobilised via His-tag on NTA surface, hSUMO1 flowed over it.
Molecule B12 showed a Kd of 2500 nM. Same read-out and setting: then B13, with 519 nM.

For another assay the target is unchanged. Put plainly: ratio of the apparent affinity for hSUMO1 to that for ySUMO in the titration phage ELISA of FIGS. 25A and 26A; group Low Specificity (0-10).
Take B14: the Specificity Factor was 8. Same read-out and setting: with B15 the figure was 1.4; with B16, 2.6; with B17, 2.9. The same measure, in the same setting: then B18, with 4.4.

Turning to B19, the Specificity Factor was 0.7. The same measure, in the same setting: with B20 the figure was 0.6.

For a further assay the target is unchanged. Put plainly: ratio of the apparent affinity for hSUMO1 to that for ySUMO in the titration phage ELISA of FIGS. 25A and 26A; group High Specificity (>100).
Turning to B21, the Specificity Factor is over 100. The same measure, in the same setting: with B22 the figure was over 100. Still for that read-out and setting: with B23 the figure was over 100; with B12, over 100. On the same count and under the same terms, then B24, with over 100.

The target is the same in another assay. Put plainly: ratio of the apparent affinity for hSUMO1 to that for ySUMO in the titration phage ELISA of FIGS. 25A and 26A; group Moderate Specificity (10-100).
For B13, the Specificity Factor came out at 12.3. For the molecule B25, the Specificity Factor was found to be 13.1. Same read-out and setting: with B26 the figure was 52.5.
